Laboratory results from paper PMC5290284, “Portal protein functions akin to a DNA-sensor that couples genome-packaging to icosahedral capsid maturation” (Nature Communications, 2017).

Key:
[1] = target: T1, P22 PC-portal rings coupled to CNBr-activated Sepharose beads (bacteriophage P22, UniProt P26744 1-725); assay: pull-down; PC- or MV-portal rings immobilized on CNBr-activated Sepharose 4B beads; soluble protein added (L-terminase pre-complexed with non-hydrolyzable ATP); bound and unbound fractions on SDS–PAGE; conditions: both partners purified
T1 construct: Portal protein (gp1) of bacteriophage P22; Procapsid conformation; also called PC-portal protein; PC-portal beads; source: E. coli BL21 (DE3), purified (Ni-NTA, Superose 6); copies: 12
T1 sequence (looked up): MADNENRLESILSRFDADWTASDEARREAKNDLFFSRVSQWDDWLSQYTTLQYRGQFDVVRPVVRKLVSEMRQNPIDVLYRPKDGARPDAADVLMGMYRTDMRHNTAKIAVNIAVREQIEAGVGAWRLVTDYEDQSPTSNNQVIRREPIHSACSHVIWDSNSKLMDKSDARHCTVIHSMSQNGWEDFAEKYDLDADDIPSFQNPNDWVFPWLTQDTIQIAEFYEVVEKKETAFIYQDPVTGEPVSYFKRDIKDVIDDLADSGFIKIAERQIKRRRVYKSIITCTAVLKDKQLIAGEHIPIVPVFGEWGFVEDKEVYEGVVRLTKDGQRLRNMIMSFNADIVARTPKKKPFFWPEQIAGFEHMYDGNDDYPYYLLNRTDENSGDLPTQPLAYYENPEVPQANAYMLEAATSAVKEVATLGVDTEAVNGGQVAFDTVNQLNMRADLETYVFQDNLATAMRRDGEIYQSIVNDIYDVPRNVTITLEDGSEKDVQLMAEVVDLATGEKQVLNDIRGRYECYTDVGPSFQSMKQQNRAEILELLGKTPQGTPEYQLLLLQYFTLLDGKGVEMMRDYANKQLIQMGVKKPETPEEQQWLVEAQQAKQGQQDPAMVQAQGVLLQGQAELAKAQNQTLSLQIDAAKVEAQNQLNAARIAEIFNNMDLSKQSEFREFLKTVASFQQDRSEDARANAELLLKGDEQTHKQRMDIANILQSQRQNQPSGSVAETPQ

[2] = target: T2, P22 MV-portal rings coupled to CNBr-activated Sepharose beads (bacteriophage P22, UniProt P26744 1-725); assay: as above; conditions: both partners purified
T2 construct: Portal protein (gp1) of bacteriophage P22; Mature virion conformation; also called MV-portal protein; MV-portal beads; source: E. coli BL21 (DE3), purified (Ni-agarose, Superose 12); copies: 12
T2 sequence (looked up): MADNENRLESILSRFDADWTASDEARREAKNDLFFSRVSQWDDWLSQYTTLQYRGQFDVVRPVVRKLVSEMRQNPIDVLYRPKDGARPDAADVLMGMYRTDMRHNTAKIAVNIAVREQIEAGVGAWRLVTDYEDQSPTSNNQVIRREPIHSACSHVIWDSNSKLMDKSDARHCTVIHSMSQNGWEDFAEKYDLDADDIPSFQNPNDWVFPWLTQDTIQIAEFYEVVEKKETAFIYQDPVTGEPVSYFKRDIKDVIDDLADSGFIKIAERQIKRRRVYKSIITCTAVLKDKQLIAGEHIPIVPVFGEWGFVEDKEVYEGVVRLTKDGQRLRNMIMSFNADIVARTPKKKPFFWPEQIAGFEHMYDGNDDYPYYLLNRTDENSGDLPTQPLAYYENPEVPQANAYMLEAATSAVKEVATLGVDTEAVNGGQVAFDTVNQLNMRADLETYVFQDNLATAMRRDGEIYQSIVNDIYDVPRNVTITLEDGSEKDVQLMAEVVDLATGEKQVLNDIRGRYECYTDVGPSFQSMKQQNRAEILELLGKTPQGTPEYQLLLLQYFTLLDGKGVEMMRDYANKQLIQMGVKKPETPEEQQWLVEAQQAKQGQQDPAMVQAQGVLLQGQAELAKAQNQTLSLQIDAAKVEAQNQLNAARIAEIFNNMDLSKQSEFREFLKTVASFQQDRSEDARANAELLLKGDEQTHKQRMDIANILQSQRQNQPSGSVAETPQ

[3] = target: the molecule itself; assay: crystal structure; PC-portal core at 10 mg/ml, 5% PEG 8,000, 10 mM caesium chloride, pH 5.6, 22 °C; 3.30 Å; whole dodecamer in the asymmetric unit

Row | Binder | stoichiometry N [1] [gp4 equivalents] | stoichiometry N [2] [gp4 equivalents] | stoichiometry N [3] [protomers]
1 | P22 tail factor gp4 (natural protein, bacteriophage P22, UniProt P26746 1-166, looked up, Tail factor gp4 of bacteriophage P22; source: E. coli BL21 (DE3), purified (Ni-agarose, Superdex 75)) MQIKTKGDLVRAALRKLGVASDATLTDVEPQSMQDAVDDLEAMMAEWYQDGKGIITGYVFSDDENPPAEGDDHGLRSSAVSAVFHNLACRIAPDYALEATAKIIATAKYGKELLYKQTAISRAKRAPYPSRMPTGSGNSFANLNEWHYFPGEQNADSTTPHDEGNG | 11.4 ± 1 | 11 ± 1 | 
2 | P22 PC-portal protein core (res. 1–602), procapsid conformation (domain or fragment, bacteriophage P22, UniProt P26744 1-602, looked up, Portal protein (gp1) of bacteriophage P22, core, residues 1–602; Asymmetric dodecamer; also called PC-portal core; portal-602; copies: 12) MADNENRLESILSRFDADWTASDEARREAKNDLFFSRVSQWDDWLSQYTTLQYRGQFDVVRPVVRKLVSEMRQNPIDVLYRPKDGARPDAADVLMGMYRTDMRHNTAKIAVNIAVREQIEAGVGAWRLVTDYEDQSPTSNNQVIRREPIHSACSHVIWDSNSKLMDKSDARHCTVIHSMSQNGWEDFAEKYDLDADDIPSFQNPNDWVFPWLTQDTIQIAEFYEVVEKKETAFIYQDPVTGEPVSYFKRDIKDVIDDLADSGFIKIAERQIKRRRVYKSIITCTAVLKDKQLIAGEHIPIVPVFGEWGFVEDKEVYEGVVRLTKDGQRLRNMIMSFNADIVARTPKKKPFFWPEQIAGFEHMYDGNDDYPYYLLNRTDENSGDLPTQPLAYYENPEVPQANAYMLEAATSAVKEVATLGVDTEAVNGGQVAFDTVNQLNMRADLETYVFQDNLATAMRRDGEIYQSIVNDIYDVPRNVTITLEDGSEKDVQLMAEVVDLATGEKQVLNDIRGRYECYTDVGPSFQSMKQQNRAEILELLGKTPQGTPEYQLLLLQYFTLLDGKGVEMMRDYANKQLIQMGVKKPETPEEQQWLVEAQQAKQG |  |  | 12
